Measurements: patent US20110262445A1 (CEPHALON AUSTRALIA, published 2011)
Read-outs that look alike come from different tables or passages of the source. Blank lines part the entries; values can stand above or below the binder they belong to.

What was measured:
[1] = target: T1, human IL-23 (human, UniProt P29460 23-328; Q9NPF7 20-189); assay: SPR, purified scFv captured via FLAG
T1 construct: Recombinant (Ebioscience); HIS-tagged in flow cytometry, biotinylated in some assays; also called hIL-23; rhIL-23
T1 sequence 1: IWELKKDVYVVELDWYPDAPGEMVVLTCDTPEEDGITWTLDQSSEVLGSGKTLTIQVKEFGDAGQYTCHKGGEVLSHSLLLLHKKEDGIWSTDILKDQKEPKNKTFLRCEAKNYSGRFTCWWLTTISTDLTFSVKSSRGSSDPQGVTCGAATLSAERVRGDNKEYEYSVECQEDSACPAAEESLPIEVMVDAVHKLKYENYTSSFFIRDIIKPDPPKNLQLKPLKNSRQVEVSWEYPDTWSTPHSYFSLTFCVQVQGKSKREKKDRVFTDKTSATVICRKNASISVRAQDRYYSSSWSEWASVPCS
T1 sequence 2: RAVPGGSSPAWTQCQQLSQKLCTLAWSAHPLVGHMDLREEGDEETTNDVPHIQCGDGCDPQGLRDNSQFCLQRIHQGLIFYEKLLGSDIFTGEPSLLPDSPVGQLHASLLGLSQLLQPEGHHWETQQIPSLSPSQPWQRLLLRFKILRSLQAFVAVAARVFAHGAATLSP
Procedure: (§1) A number of the scFv variants presented in TABLE 4 were selected for full characterization of binding kinetics, encompassing a broad range of mutation profiles and binding affinities. Large-scale protein expressions were carried out for each scFv. The expressed scFvs were purified as monomeric proteins and tested for binding against IL-12 and IL-23 by SPR (TABLE 5).
(§2) Purified scFvs were subjected to full kinetic characterization using a BIAcore T100 biosensor (GE Healthcare). Approximately 10,000 RU of the proprietry FLAG-specific capture molecule was immobilized on a CM5 Series S Sensor chip, using standard amine coupling chemistry in flow cells (FC) 1 and FC2 (or alternatively FC3 and FC4) of the BIAcore T100 Biosensor. The running buffer used was HBS-EP+ (BIAcore) and interactions measured at 30° C. or 35° C. to promote differentiation of scFvs with very similiar kd values. Peak purified FLAG-tagged scFvs (prepared as described in the previous paragraph) were diluted to 10 nM in running buffer, and captured on FC2 at a flow rate of 10 μl/min in order to capture 50 RU of scFv (typically 60 sec was sufficient to capture this level of tagged scFv). After an appropriate stabilization period, the target, IL-12 or IL-23, were passed over FC1 and FC2 at a flow rate of 60 μl/min at concentrations ranging from 81 nM to 0.13 nM (using a five-fold dilution of IL-12) and 81 nM to 1 nM (using a three-fold dilution of IL-23). The contact time for association was 180 sec and dissociation measured for 10 mins for the highest concentration and 300 sec for all other concentrations in the series. The sensorgram data from FC2 was subtracted from FC1 and a buffer only control. The curves were fitted using a 1:1 Langmuir equation to generate the kₐ, kd and KD values.

[2] = target: T2, human IL-12 (human, UniProt P29460 23-328; P29459 23-219); assay: SPR, purified scFv captured via FLAG
T2 construct: Recombinant (Peprotech); FLAG-tagged IL-12 in the flow cytometry assays, biotinylated in the IL-12Rβ2 assay; also called hIL-12
T2 sequence 1: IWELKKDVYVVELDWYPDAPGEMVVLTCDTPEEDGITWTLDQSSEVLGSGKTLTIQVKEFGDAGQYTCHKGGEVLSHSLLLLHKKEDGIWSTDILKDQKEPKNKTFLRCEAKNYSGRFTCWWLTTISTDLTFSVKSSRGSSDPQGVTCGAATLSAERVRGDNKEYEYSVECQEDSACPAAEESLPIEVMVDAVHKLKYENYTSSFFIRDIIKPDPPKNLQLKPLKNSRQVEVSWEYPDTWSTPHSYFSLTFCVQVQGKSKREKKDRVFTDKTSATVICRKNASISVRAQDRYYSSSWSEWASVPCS
T2 sequence 2: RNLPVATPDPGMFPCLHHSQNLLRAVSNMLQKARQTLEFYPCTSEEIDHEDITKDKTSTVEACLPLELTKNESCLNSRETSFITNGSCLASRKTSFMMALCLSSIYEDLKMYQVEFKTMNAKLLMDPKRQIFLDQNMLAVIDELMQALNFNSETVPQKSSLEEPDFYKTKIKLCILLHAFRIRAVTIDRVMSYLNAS
Procedure: as §1, §2

[3] = target: T1, human IL-23; assay: SPR screen, crude scFv captured via FLAG
Procedure: Approximately 6500 individual scFvs recovered from the ribosome display reactions were expressed and screened for binding against IL-23 using a high-throughout SPR assay. The variants were ranked according to the kd and the best variants were sequenced at the nucleic acid level.
High-throughput SPR screening was conducted using a BIAcore A100 biosensor (GE Healthcare). Approximately 10 000 RU of the proprietary FLAG-specific capture molecule was immobilized on a CM5 Series S Sensor chip, using standard amine coupling chemistry on Spots 1 & 5 (outer spots) and 3,000RU to Spots 2 & 4 (inner spots) in each of the four flow cells of the BIAcore A100 Biosensor. The running buffer used was HBS-EP+ (BIAcore) and all interactions measured at 25° C. Crude periplasmic preparations of FLAG-tagged scFvs (prepared as described in the previous paragraph), were diluted two-fold in running buffer before capturing at a flow rate of 5u1/min for 60 sec. Approx. 100RU (on outer spots) and 50RU (on inner spots) of tagged scFv was captured. Following a 2 min stabilization period, IL-23 was passed over all spots of all four flow cells simultaneously at a flow rate of 30u1/min for 120 sec and dissociation monitored for 200 sec. Generated sensorgrams were referenced against the unmodified spot 3 of each flow cell, and fitted using a 1:1 Langmuir equation with R1 set to local to account for varying ligand densities to generate the kₐ, kd and KD values.

[4] = target: T1, human IL-23; assay: SPR, purified scFv captured via FLAG; LOD estimated 1 × 10^-5 s^-1
Procedure: as §1, §2

[5] = target: T3, IL-12Rβ1 on stably transfected Jurkat cells (human, UniProt P42701 24-662); assay: flow cytometry; binding blocked by Antibody 202.1
T3 construct: whole, on cells; Cell line negative for IL-12Rβ2 and IL-23R; also called IL-12Rβ1 Jurkat cell line
In short: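 Jurkat cells stably transfected with IL-12Rβ1 were used. FLAG- or HIS-tagged cytokine at 250 ng/ml was preincubated with antibody (10 to 0.01 μg/ml, half-log dilutions) for one hour at 37° C, then cells at 10⁶/ml were added for a further hour. Cells were washed in PBS/10% FBS. Cell-bound cytokine was detected with phycoerythrin anti-HIS or FITC anti-FLAG on a Beckman-Coulter Quanta, and blocking of receptor binding was the read-out.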

[6] = target: T2, human IL-12; assay: ELISA, coated IL-12
In short: (§3)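 Maxisorp plates were coated overnight at 4° C with cytokine at 1 μg/mL in carbonate buffer pH 9.6, then blocked for 1 hour at 25° C with 1% BSA in PBS. Antibody titrations were allowed to bind for 1 hour at 25° C and detected with goat anti-human IgG or anti-murine immunoglobulin HRP (1:2000, 1 hour), followed by TMB development stopped with 1M HCl. Binding is reported as absorbance. Readings were taken at 450 nm against a 620 nm reference.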

[7] = target: T1, human IL-23; assay: ELISA, coated IL-23
In short: as §3

[8] = target: T2, human IL-12; assay: ELISA, coated IL-12; remark: listed apart in the source
In short: as §3

[9] = target: T1, human IL-23; assay: ELISA, coated IL-23; remark: listed apart in the source
In short: as §3

kon [1]: 310000 M⁻¹ s⁻¹ | Kd [2]: 0.061 nM | koff [2]: 0.00012 s⁻¹ | kon [2]: 2e+06 M⁻¹ s⁻¹ | koff [3]: 0.00019 s⁻¹ | koff [4]: < 1e-05 s⁻¹
B1: scFv CP-A6 (scFv)
scFv: QVQLVQSGAEVKKPGASVKVSCKASGYTFTDYYLHWVRQAPGQGLEWMGWIDPENGDTEHAPKFQGRVTMTTDTSTSTAYMELRSLRSDDTAVYYCNANKELRYFDVWGQGTMVTVSSGGGGSGGGGSGGGGSEIVMTQSPATLSVSPGERATLSCRASQSISINLHWYQQKPGQAPRLLIYFASQSISGIPARFSGSGSGTEFTLTISSLQSEDFAVYYCQQSNSFPLTFGGGTKVEIKR
notes: scFv-80 variant: VH Y59H; not shown: proprietary C-terminal FLAG tag

kon [1]: 300000 M⁻¹ s⁻¹ | Kd [2]: 0.048 nM | koff [2]: 9.7e-05 s⁻¹ | kon [2]: 2e+06 M⁻¹ s⁻¹ | koff [3]: 0.00019 s⁻¹ | koff [4]: < 1e-05 s⁻¹
B2: scFv CU-A6 (scFv)
scFv: QVQLVQSGAEVKKPGASVKVSCKASGYTLTDYYLHWVRQAPGQGLEWMGWIDPENGDTEYAPKFQGRVTMTTDTSTSTAYMELRSLRSDDTAVYYCNANKELRYFDVWGQGAMVTVSSGGGGSGGGGSGGGGSEIVMTQSPATLSVSPGERATLSCRASQSISINLHWYQQKPGQAPRLLIYFASQSISGIPARFFGSGSGTEFTLTISSLQSEDFAVYYCQQSNSFPLTFGGGTKVEIKR
notes: scFv-80 variant: VH F29L, T107A; VL S63F; not shown: proprietary C-terminal FLAG tag

binding result [6]: binds | binding result [7]: binds
B9: Antibody 40 (antibody, human IgG1, kappa, V domains shown)
VH: EVQLVQSGAEVKKPGATVKISCKVSGYTFTDYYMHWVQQAPGKGLEWMGWIDPENGDTEYAPKFQGRVTITADTSTDTAYMELSSLRSEDTAVYYCATCKELRYFDVWGQGTMVTVSS
VL: EIVLTQSPDFQSVTPKEKVTITCRASQSISINLHWYQQKPDQSPKLLIKFASQSISGVPSRFSGSGSGTDFTLTINSLEAEDAATYYCQQSNSWPLTFGGGTKVEIKR
notes: Superhumanized PMA204

Further lines, the binder ahead of its results:

B3: human IL-12p40 (ligand)
chain: IWELKKDVYVVELDWYPDAPGEMVVLTCDTPEEDGITWTLDQSSEVLGSGKTLTIQVKEFGDAGQYTCHKGGEVLSHSLLLLHKKEDGIWSTDILKDQKEPKNKTFLRCEAKNYSGRFTCWWLTTISTDLTFSVKSSRGSSDPQGVTCGAATLSAERVRGDNKEYEYSVECQEDSACPAAEESLPIEVMVDAVHKLKYENYTSSFFIRDIIKPDPPKNLQLKPLKNSRQVEVSWEYPDTWSTPHSYFSLTFCVQVQGKSKREKKDRVFTDKTSATVICRKNASISVRAQDRYYSSSWSEWASVPCS
notes: p40 monomer; also called p40 subunit
binding result [5]: binds

B4: Antibody 35 (antibody, human IgG1, kappa, V domains shown)
VH: QVQLVQSGAEVKKPGASVKVSCKVSGYTLTDYYMHWVRQAPGKGLEWMGWIDPENGDTEYAPKFQGRVTMTEDTSTDTAYMELSSLRSEDTAVYYCNACKELRYFDVWGQGTMVTVSS
VL: EIVMTQSPATLSVSPGERATLSCRASQSISINLHWYQQKPGQAPRLLIYFASQSISGIPARFSGSGSGTEFTLTISSLQSEDFAVYYCQQSNSWPLTFGGGTKVEIKR
binding result [6]: binds | binding result [7]: binds

B5: Antibody 37 (antibody, human IgG1, kappa, V domains shown)
VH: EVQLVQSGAEVKKPGATVKISCKVSGYTFTDYYMHWVQQAPGKGLEWMGWIDPENGDTEYAPKFQGRVTITADTSTDTAYMELSSLRSEDTAVYYCNACKELRYFDVWGQGTMVTVSS
VL: EIVLTQSPATLSLSPGERATLSCRASQSISINLHWYQQKPGQAPRLLIYFASQSISGIPARFSGSGSGTDFTLTISSLEPEDFAVYYCQQSNSWPLTFGGGTKVEIKR
notes: Superhumanized, backmutated heavy chain
binding result [6]: binds | binding result [7]: binds

B6: Antibody 78 (antibody, human IgG1, kappa, V domains shown)
VH: QVQLVQSGAEVKKPGASVKVSCKVSGYTLTDYYLHWVRQAPGKGLEWMGWIDPENGDTEYAPKFQGRVTMTEDTSTDTAYMELSSLRSEDTAVYYCATNKELRYFDVWGQGTMVTVSS
VL: EIVLTQSPATLSLSPGERATLSCRASQSISINLHWYQQKPGQAPRLLIYFASQSISGIPARFSGSGSGTDFTLTISSLEPEDFAVYYCQQSNSFPLTFGGGTKVEIKR
binding result [8]: binds | binding result [9]: binds

B7: Antibody 34 (antibody, human IgG1, kappa, V domains shown)
VH: EVQLVQSGAEVKKPGATVKISCKVSGYTFTDYYMHWVQQAPGKGLEWMGWIDPENGDTEYAPKFQGRVTITADTSTDTAYMELSSLRSEDTAVYYCNACKELRYFDVWGQGTMVTVSS
VL: EIVMTQSPATLSVSPGERATLSCRASQSISINLHWYQQKPGQAPRLLIYFASQSISGIPARFSGSGSGTEFTLTISSLQSEDFAVYYCQQSNSWPLTFGGGTKVEIKR
binding result [6]: binds | binding result [7]: binds

B8: Antibody 36 (antibody, human IgG1, kappa, V domains shown)
VH: QVQLVQSGAEVKKPGASVKVSCKASGYTFTDYYMHWVRQAPGQGLEWMGWIDPENGDTEYAPKFQGRVTMTTDTSTSTAYMELRSLRSDDTAVYYCNACKELRYFDVWGQGTMVTVSS
VL: EIVMTQSPATLSVSPGERATLSCRASQSISINLHWYQQKPGQAPRLLIYFASQSISGIPARFSGSGSGTEFTLTISSLQSEDFAVYYCQQSNSWPLTFGGGTKVEIKR
binding result [6]: binds | binding result [7]: binds
